The numbers were not newly measured in patent publication US20230233498A1, “COMPOSITIONS AND METHODS FOR THE TREATMENT OF COVID-19” (PROTHIONE, LLC, priority 2020, published 2023), which cites them from elsewhere.

In one series the test system is EBOV replicon system. As to conditions: transient expression.
The subject of the next series is Ebola virus (EBOV). Conditions: cells expressing NZAP-Zeo or full-length ZAP.

B1: ZAP: zinc finger antiviral protein (protein, UniProt Q7Z2W4 2-902, looked up)
Zinc finger CCCH-type …: ADPEVCCFITKILCAHGGRMALDALLQEIALSEPQLCEVLQVAGPDRFVVLETGGEAGITRSVVATTRARVCRRKYCQRPCDNLHLCKLNLLGRCNYSQSERNLCKYSHEVLSEENFKVLKNHELSGLNKEELAVLLLQSDPFFMPEICKSYKGEGRQQICNQQPPCSRLHICDHFTRGNCRFPNCLRSHNLMDRKVLAIMREHGLNPDVVQNIQDICNSKHMQKNPPGPRAPSSHRRNMAYRARSKSRDRFFQGSQEFLASASASAERSCTPSPDQISHRASLEDAPVDDLTRKFTYLGSQDRARPPSGSSKATDLGGTSQAGTSQRFLENGSQEDLLHGNPGSTYLASNSTSAPNWKSLTSWTNDQGARRKTVFSPTLPAARSSLGSLQTPEAVTTRKGTGLLSSDYRIINGKSGTQDIQPGPLFNNNADGVATDITSTRSLNYKSTSSGHREISSPRIQDAGPASRDVQATGRIADDADPRVALVNDSLSDVTSTTSSRVDDHDSEEICLDHLCKGCPLNGSCSKVHFHLPYRWQMLIGKTWTDFEHMETIEKGYCNPGIHLCSVGSYTINFRVMSCDSFPIRRLSTPSSVTKPANSVFTTKWIWYWKNESGTWIQYGEEKDKRKNSNVDSSYLESLYQSCPRGVVPFQAGSRNYELSFQGMIQTNIASKTQKDVIRRPTFVPQWYVQQMKRGPDHQPAKTSSVSLTATFRPQEDFCFLSSKKYKLSEIHHLHPEYVRVSEHFKASMKNFKIEKIKKIENSELLDKFTWKKSQMKEEGKLLFYATSRAYVESICSNNFDSFLHETHENKYGKGIYFAKDAIYSHKNCPYDAKNVVMFVAQVLVGKFTEGNITYTSPPPQFDSCVDTRSNPSVFVIFQKDQVYPQYVIEYTEDKACVIS
Regarding B1, the “decreased activity of an EBOV replicon system” value in the series with EBOV replicon system is listed as “up to 95%”. Further, in the series on Ebola virus (EBOV), the EBOV inhibited entry is “up to 4 log units”.
